Source: US20240343803A1 (SHANDONG SIMCERE BIOPHARMACEUTICAL, published 2024)
Each block holds one binder with its values, some of them ahead of it.

Experiments:
[1] = target: T1, full-length cynomolgus monkey TIGIT on CHO-K1 cells (CHO-K1 cynomolgus monkey TIGIT) (cynomolgus monkey); assay: FACS
T1 construct: NCBI XP_015300911.1; also called cynomolgus monkey TIGIT cells
Procedure: The collected cells were washed once with PBS (Hyclone, CAT #SH30256), resuspended to 2×10⁵/50 μL with 1% BSA-PBS. The antibodies were diluted to 80 nM with 1% BSA-PBS (diluted by 3-fold serial dilution for 12 concentration points). The 50 μL cells were then mixed with 50 μL diluted antibodies, and then incubated at 4° C. for 60 minutes. […] After washing twice with PBS, the cell samples were resuspended with 1% BSA-PBS, 100 μL/well and then analyzed by flow cytometry (BD, Canto II). […] [0298] (c) The effect of anti-TIGIT chimeric antibodies blocking the interaction between Bio-CD155-His and CHO-K1 human TIGIT high expression cell strains detected by FACS

[2] = target: T2, human TIGIT ECD-mFc (fusion protein of extracellular domain of human TIGIT and mouse IgG2a Fc fragment) (human); assay: ELISA
T2 chain: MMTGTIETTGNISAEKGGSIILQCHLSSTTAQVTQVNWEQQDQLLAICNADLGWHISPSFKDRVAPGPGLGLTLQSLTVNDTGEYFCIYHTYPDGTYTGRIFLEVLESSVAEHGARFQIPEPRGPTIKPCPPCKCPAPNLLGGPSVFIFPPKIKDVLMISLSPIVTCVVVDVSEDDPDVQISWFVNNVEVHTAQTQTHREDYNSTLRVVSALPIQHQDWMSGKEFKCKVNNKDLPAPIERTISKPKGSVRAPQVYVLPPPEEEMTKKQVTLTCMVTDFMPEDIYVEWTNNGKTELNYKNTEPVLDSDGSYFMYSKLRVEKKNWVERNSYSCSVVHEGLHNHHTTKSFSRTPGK
Procedure: After discarding the coating solution, the plate was added with 5% skim milk powder (Sangon Biotech, CAT #A600669-0250)-PBS, 250 μL/well, and incubated at 37° C. for 2-4 hours. […] The enzyme-labeled plate was then washed with 0.05% Tween 20-PBS for 3 times on the Microplate Washer, added with tested antibodies diluted to 13 nM with 1% BSA (diluted by 3-fold serial dilution for 12 concentration points), 50 μL/well, and incubated at 37° C. for 1.5-2 hours. The plate was washed with 0.05% Tween 20-PBS for 3 times on the Microplate Washer, then added with HRP enzyme-labeled antibodies (Merck, CAT #AP113P) diluted with 1% BSA (Sangon Biotech, CAT #A500023-0100)-PBS at a dilution ratio of 1:5000, 50 μL/well, and incubated at 37° C. for 1 hour. After washing 3 times with 0.05% Tween 20-PBS on the Microplate Washer, the plate was added with TMB chromogenic solution (KPL, CAT #52-00-03), 50 μL/well, and incubated at room temperature for 7-10 minutes. 1M HCL, 50 μL/well, was then added into the plate to terminate the reaction, and the OD450 nm was read by a microplate reader (Biotek, Powerwave HT). […] (b) The binding activity of anti-TIGIT chimeric antibodies to CHO-K1 human TIGIT (cells with high, medium and low expression levels) and CHO-KI cynomolgus monkey TIGIT detected by FACS.

[3] = target: T3, cynomolgus monkey PVRIG on FlpinCHO-cyno PVRIG cells (cynomolgus monkey, UniProt A0A2K5WVV8 41-322); assay: FACS, FlpinCHO-cyno PVRIG cells
T3 construct: whole, on cells; also called FlpinCHO-cynomolgus monkey PVRIG
T3 sequence: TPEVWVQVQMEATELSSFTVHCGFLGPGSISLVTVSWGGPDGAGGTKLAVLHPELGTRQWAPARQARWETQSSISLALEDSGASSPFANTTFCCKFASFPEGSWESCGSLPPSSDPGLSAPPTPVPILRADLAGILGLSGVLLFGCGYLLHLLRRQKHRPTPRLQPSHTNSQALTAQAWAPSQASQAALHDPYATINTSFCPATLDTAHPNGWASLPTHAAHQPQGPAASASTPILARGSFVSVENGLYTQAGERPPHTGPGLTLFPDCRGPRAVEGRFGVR

[4] = target: T4, human PVRIG on FlpinCHO-PVRIG cells (human, UniProt Q6DKI7 41-326); assay: FACS, FlpinCHO-PVRIG cells
T4 construct: whole, on cells; also called FlpinCHO-hPVRIG; FlpinCHO-human PVRIG
T4 sequence (looked up): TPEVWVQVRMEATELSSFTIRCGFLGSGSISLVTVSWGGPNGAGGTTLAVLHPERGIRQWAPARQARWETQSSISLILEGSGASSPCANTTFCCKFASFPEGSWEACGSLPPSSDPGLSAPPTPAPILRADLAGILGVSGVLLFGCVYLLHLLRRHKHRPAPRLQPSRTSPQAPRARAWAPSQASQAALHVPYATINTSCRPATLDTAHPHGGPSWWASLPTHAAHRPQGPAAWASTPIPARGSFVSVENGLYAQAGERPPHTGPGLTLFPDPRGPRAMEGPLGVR
Procedure: After discarding the cell culture medium, the cells were rinsed with PBS and digested for 8-10 minutes by adding 1 mL Versene (Gibico, 15040-066). The Ham's F12 (Gibico, 21127-022) complete medium containing 10% FBS was then added to terminate the digestion and acquire cell suspension. After counting with a cell counter (Beckman Coulter, Vi-CELL), an appropriate amount of cell suspension was centrifuged at 350×g to remove the supernatant, washed twice with PBS, stained with Zombie violet (Biolegend, 423114) and incubated at room temperature for 20 minutes. After incubation, the cells were added with staining buffer (2% FBS+PBS) to stop staining, centrifuged at 350×g to remove the supernatant, washed twice and resuspended with staining buffer to a density of 2×10⁶ cells/mL. The cells were plated into a 96-well plate (50 μL of cell suspension per well) for further use. The antibodies were diluted from the highest concentration of 46 nM (two-fold concentration) with staining buffer by 3.3-fold serial dilution. The diluted antibodies were added to the well containing 50 μL of cell suspension. The plate was placed on a microplate shaker at 400 rpm for 1 minute to fully mix the antibodies and cells, and then incubated at 4° C. for 30 minutes. After the incubation, the cells were washed twice with staining buffer (200 μL per well) and centrifuged at 350×g for 5 minutes to discard the supernatant. The PE goat anti-human IgG Fc antibody (ebioscience, 12-4998-82) was diluted 250 times with staining buffer, added into the washed wells (100 μL per well), mixed well, and stained at 4° C. for 30 minutes. After staining, the cells were washed twice with staining buffer, finally resuspended with 200 μL staining buffer and analyzed by flow cytometry (BD, Canto II). The stronger the signal, the stronger the ability of the antibodies binds to PVRIG. An antibody binding curve was drawn with concentration of antibodies as the abscissa and the corresponding Mean Fluorescence Intensity (MFI) as the ordinate. The AUC value of the curve was calculated by using a Four Parameter Logistic Fit (GraphPadPrism9).

T1 sequence (chain, as listed by the source limits assumed): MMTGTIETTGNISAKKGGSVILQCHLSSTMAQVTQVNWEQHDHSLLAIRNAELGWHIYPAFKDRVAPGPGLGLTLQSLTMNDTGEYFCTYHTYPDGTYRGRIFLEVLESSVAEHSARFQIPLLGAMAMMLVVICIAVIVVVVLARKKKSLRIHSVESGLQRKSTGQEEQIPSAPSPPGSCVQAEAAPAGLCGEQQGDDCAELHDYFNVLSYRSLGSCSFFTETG

EC50 [1]: 0.0509 nM | EC50 [2]: 0.0151 nM
B1: RG6058-hIgG1 (antibody, V domains shown)
VH: EVQLQQSGPGLVKPSQTLSLTCAISGDSVSSNSAAWNWIRQSPSRGLEWLGKTYYRFKWYSDYAVSVKGRITINPDTSKNQFSLQLNSVTPEDTAVFYCTRESTTYDLLAGPFDYWGQGTLVTVSS
VL: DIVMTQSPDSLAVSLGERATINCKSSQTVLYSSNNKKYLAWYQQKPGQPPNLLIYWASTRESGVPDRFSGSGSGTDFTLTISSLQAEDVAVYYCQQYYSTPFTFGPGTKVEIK
notes: human IgG1 format by its name; also called Roche RG6058; control antibody RG6058

EC50 (read off the curve) [3]: 1 to 1.4 nM
B2: SRF813-hIgG1 (antibody, V domains shown)
VH: QVQLVQSGAEVKKPGSSVKVSCKASGGTFSSAAISWVRQAPGQGLEWMGNIIPIVGIANYAQKFQGRVTITADESTSTAYMELSSLRSEDTAVYYCARDTGRGYTRHFWFDPWGQGTLVTVSS
VL: DIQMTQSPSSLSASVGDRVTITCRASQSISSYLNWYQQKPGKAPKLLIYAASSLQSGVPSRFSGSGSGTDFTLTISSLQPEDFATYYCQQSDILYTFGGGTKVEIK
notes: human IgG1 format by its name

EC50 (read off the curve) [4]: ~0.4 nM
B3: PVRIG-A105 (VHH)
VHH: EVQLVESGGGLVQAGGSLRLSCAASGRTFDRHTMTWFRQAPGKEREFVATASRIPGDTYYSHSVKGRFTISRDNAKNTVYLQLNNLKPEDTAVYYCAATSAYCSEVDCYEKGSWYDNWGQGIQVTVSS
notes: tested as VHH-hinge-CH2-CH3 (human IgG1-Fc); not shown: human IgG1 hinge-CH2-CH3
